The results in this text go back to article PMC12431651 (2025).

This assay addresses T1, MED25 ACID (Homo sapiens, UniProt Q71SY5).
T1 chain: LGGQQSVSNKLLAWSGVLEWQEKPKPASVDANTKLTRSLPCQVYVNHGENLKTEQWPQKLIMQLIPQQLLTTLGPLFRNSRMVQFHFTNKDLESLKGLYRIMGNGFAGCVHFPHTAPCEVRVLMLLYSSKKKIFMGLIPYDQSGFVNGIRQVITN
As to the kind of experiment: BLI.

Usually Kd stands for the equilibrium constant for the complex coming apart. Low values mean tighter binding, high ones weaker binding.

B1: NS1 (protein)
chain: MGSNSLSMIKVRLQNLFDNDEVALLKITCYTDKLIHLTNALAKAVIHTIKLNGIVFVHVITSSDICPNNNIVVKSNFTTMPVLQNGGYIWEMMELTHCSQPNGLLDDNCEIKFSKKLSDSTMTNYMNQLSELLGFDLNP
In turn, B1 showed an equilibrium dissociation constant (Kd) of 16 nM.
